Literature values as cited in paper PMC5372734.
Read-outs that look alike come from different tables or passages of the source.

How the values were obtained:
[1] = target: Factor XIIa (Homo sapiens) (UniProt P00748)
[2] = target: Factor XIIa (Homo sapiens) (UniProt P00748); remark: listed apart in the source

Sequence of UniProt P00748 (P00748 whole entry, looked up): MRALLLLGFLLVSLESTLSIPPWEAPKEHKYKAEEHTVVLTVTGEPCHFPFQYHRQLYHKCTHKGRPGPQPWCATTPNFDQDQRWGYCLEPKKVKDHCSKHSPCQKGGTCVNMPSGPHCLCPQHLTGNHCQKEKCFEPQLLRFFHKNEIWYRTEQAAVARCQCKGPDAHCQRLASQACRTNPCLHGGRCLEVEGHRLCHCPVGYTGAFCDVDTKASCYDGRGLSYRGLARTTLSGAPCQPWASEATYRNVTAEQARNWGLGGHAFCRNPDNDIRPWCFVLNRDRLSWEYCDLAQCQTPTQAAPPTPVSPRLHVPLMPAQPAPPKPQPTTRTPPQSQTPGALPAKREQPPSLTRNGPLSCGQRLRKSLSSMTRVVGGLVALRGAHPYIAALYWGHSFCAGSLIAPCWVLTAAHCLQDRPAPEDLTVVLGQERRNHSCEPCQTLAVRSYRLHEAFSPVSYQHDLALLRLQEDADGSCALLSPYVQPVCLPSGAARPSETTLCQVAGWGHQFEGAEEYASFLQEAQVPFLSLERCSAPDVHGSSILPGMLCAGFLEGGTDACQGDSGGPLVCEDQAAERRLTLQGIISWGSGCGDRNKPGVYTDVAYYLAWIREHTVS

Histidine-rich glycoprotein (from UniProt P04196)
Kd [1]: 1600 pM
Kd [2]: 9 pM
